Positions count from the first letter of the chain named. Names may count otherwise.
Molecular target: the molecule itself
Assay: native gel or EMSA; BN-PAGE (NativePAGE 4-16% Bis-Tris) of 1% digitonin extracts of nrc2/3/4_KO N. benthamiana leaves at 2 dpi; NRC3 variant co-expressed with Rpi-blb2, without AVRblb2

B1: N^L21ENN (NbNRC3c with L21E) (natural protein, N. benthamiana, UniProt A0A5J6DCA3 1-888, looked up)
chain: MADVAADVAVKFLVENLMQLEIDNADLIIGIKGEVENLLQDLNDFNAFLKQAAKSRRDNEVLKSLVKKIRKVVNDAEDSIDKFVIEAKRHDDKNKFAQWFHLTHVARAKGVADEIKTIRERVKEIRQNDAYGLQAITSYDNFNQGAQERKVPVVEEDDVVGFDDEAKTVIDRLIGGSDYVVPVVGMPGLGKTTLAYKIFKDSTVEYEFFNRIWVYVSQSFNRREIFLNIISKFTRNTKQYHDTPEEELANEIKELLGKGGKYLVVLDDVWTREAWDRIKIAFPNNNKRNRVLMTTRQNNVAKSCNDKPHDLKFLTENESWELLEKRVFHKEKCPFELELPGKSIAKKCRGLPLAIVVIAGALIGKGKTTREWELVADSVGEHLINRDPENCKKLVQMSYDRLPYDLKACFLYCGAFPGGSEISAQKLICLWIAEGFIQYQGPLTLEDIAEDHLNDLVNRNLVMVMKRSSSGQIKTCRVHDMLHEFCRHEAMMEENLFQEIKRGQEHSFPEKQELASYRRLCIHSSVSEFLSTKPFAEHVRSFLCFASKKFEMPLGEIPAIPRAFPLLRVLDAESIKFSRFSREFFKLFHLRYIAFSTDSIMTIPTNIGNLWNVQTLIIETQQGTLDIKADIWNMTRLRHVCINASATLPSPKRPKSSKDNLVNRCLQTLSTIAPECCTAEVFTRTPNLKKLGVRGKIDALLETSKDGSSSGLFSNIGKLDCLEKLKLVNDTRQSRKQLHLPPAYIFPQKLKKLTLIDTWFEWKDMSILGLLEYLEVLKLKENAFRGQSWEPEDSGFPRLQVLWIERTDLSSWKASSGNFPRLKCLVLIACDNLKELPAELADVENLQLMELQSTSVSAAKSARAILKKKQQKVGSGFKLSVFPPDLGL
notes: NRC3 (NbNRC3c) of Nicotiana benthamiana with L21E in the CC domain; L21E is named only in the methods of the BN-PAGE; the results call this protein NNN; also called NNN (in the BN-PAGE); source: nrc2/3/4_KO N. benthamiana leaves, agroinfiltrated, in digitonin extract
stoichiometry N: 2

B2: N^L21… (… with L21E) (natural protein, N. benthamiana, UniProt A0A5J6DCA3 1-888, looked up)
chain: B1 chain with S202P, T203K, N221K, I642T, C824H, N832K
notes: L21E is named only in the methods of the BN-PAGE; source: nrc2/3/4_KO N. benthamiana leaves, agroinfiltrated, in digitonin extract
stoichiometry N: 2
